The results in this text go back to publication doi:10.1101/2021.09.29.462438.

A word on the stoichiometry N: it is the number of molecules, sites or subunits per partner or assembly.

This test addresses N-terminal soluble domain of Bacteroides fragilis FeoAB fusion protein (BfNFeoAB) (Bacteroides fragilis). The experiment in a line: SEC.

Turning to “N-terminal soluble domain of Bacteroides fragilis FeoAB fusion protein (BfNFeoAB) (domain or fragment)”, the stoichiometry N is 3.
